Assay results reported in US20230332251A1.

Molecular target: histidine kinase UzcS (Caulobacter crescentus NA1000)
Experiment: cell-based or functional assay

Sequence of histidine kinase UzcS (Caulobacter crescentus NA1000) (chain, as listed by the source limits assumed, form in doubt): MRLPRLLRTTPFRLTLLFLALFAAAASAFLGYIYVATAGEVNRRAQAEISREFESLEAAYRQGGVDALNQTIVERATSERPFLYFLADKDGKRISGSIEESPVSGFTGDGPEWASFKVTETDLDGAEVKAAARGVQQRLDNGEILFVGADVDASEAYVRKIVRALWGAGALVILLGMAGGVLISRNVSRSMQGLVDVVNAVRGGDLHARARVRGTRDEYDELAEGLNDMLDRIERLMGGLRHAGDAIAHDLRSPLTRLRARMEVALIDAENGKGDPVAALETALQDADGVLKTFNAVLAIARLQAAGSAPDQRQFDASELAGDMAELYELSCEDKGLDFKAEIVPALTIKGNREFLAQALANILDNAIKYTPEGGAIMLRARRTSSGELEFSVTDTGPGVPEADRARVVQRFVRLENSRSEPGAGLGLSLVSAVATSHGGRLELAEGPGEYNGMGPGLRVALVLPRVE

For UzcY (protein encoded by CCNA_03497), the fold decrease in U detection limit of UzcRS (reporter fluorescence in C. crescentus, +UzcY versus -UzcY, FIG. 12) was greater than 4 fold.
